Patent publication US20210340232A1, “MONOCLONAL ANTIBODIES AGAINST HUMAN DICKKOPF3 AND USES THEREOF” (Board of Regents, The University of Texas System, priority 2018, published 2021)

Key:
BxPC3 cells = experiment: BxPC3 resistance to gemcitabine, MTS proliferation assay; assay type: cell-based, human; conditions: BxPC3, gemcitabine 100 μM, HPSC-CM 10 μg/ml, 6 days
Protocol: HPSCs and BxPC3 cells were treated with DKK3 mAb clones JM6-6-1 and JM8-12-1 or isotype control mAb or PBS. (FIGS. 5A-B) HPSC apoptosis and migration as measured by FACS and Transwell migration assay at 48 hours. (FIG. 5C) BxPC3 migration in response to rhDKK3 10 μg/ml as measured by Transwell migration assay at 48 hours. (FIG. 5D) BxPC3 resistance to gemcitabine 100 μM as measured by MTS proliferation assay at 6 days. HPSC-CM, pancreatic stellate cell conditioned media, 10 μg/ml. The orthotopic co-injection BxPC3+ HPSC model of PDAC was used to test the efficacy of DKK3 mAb clones JM6-6-1 or JM8-12-1 (5 mg/kg i.p. once every 5 days). (FIG. 5E) Overall tumor progression was measured every 3-4 days by IVIS imaging. (FIG. 5F) Metastatic tumors in the peritoneal cavity after removal of the primary pancreatic tumor are shown by IVIS imaging. (FIG. 5G) Kaplan Meier survival curve showing mice treated with DKK3 mAb clone JM8-12 (right-most line), control mAb (middle line), or PBS (left-most line). (FIG. 5H) KPC mice (P48-Cre; Kras LSL-G12D;Trp53fl/fl) with either wild type DKK3 (solid lines) or deficient in DKK3 (“DKK3-KO,” dashed lines) were treated with DKK3 mAb JM6-6-1 (5 mg/kg i.p. once every 5 days), PBS or control mAb. […]
Cell-based assays. Cell proliferation was measured by the MTS assay (Promega, Madison, Wis.). […]

[1] = test system: BxPC3 + HPSC orthotopic tumors; experiment: Orthotopic co-injection BxPC3 + HPSC nude mouse model of PDAC; assay type: in vivo; conditions: 5 mg/kg i.p. once every 5 days, vs PBS or control mAb
Protocol: HPSCs and BxPC3 cells were treated with DKK3 mAb clones JM6-6-1 and JM8-12-1 or isotype control mAb or PBS. (FIGS. 5A-B) HPSC apoptosis and migration as measured by FACS and Transwell migration assay at 48 hours. (FIG. 5C) BxPC3 migration in response to rhDKK3 10 μg/ml as measured by Transwell migration assay at 48 hours. (FIG. 5D) BxPC3 resistance to gemcitabine 100 μM as measured by MTS proliferation assay at 6 days. HPSC-CM, pancreatic stellate cell conditioned media, 10 μg/ml. The orthotopic co-injection BxPC3+ HPSC model of PDAC was used to test the efficacy of DKK3 mAb clones JM6-6-1 or JM8-12-1 (5 mg/kg i.p. once every 5 days). (FIG. 5E) Overall tumor progression was measured every 3-4 days by IVIS imaging. (FIG. 5F) Metastatic tumors in the peritoneal cavity after removal of the primary pancreatic tumor are shown by IVIS imaging. (FIG. 5G) Kaplan Meier survival curve showing mice treated with DKK3 mAb clone JM8-12 (right-most line), control mAb (middle line), or PBS (left-most line). (FIG. 5H) KPC mice (P48-Cre; Kras LSL-G12D;Trp53fl/fl) with either wild type DKK3 (solid lines) or deficient in DKK3 (“DKK3-KO,” dashed lines) were treated with DKK3 mAb JM6-6-1 (5 mg/kg i.p. once every 5 days), PBS or control mAb. Kaplan Meier survival curve is shown with hazard ratios (Log-rank test). *p<0.05, **p<0.01, ***p<0.001, ****p<0.0001 vs. control Ab.
An orthotopic nude mouse model of PDAC using BxPC3 cancer cells labeled with firefly luciferase (BxPC3-FL) co-injected with HPSCs has been previously described (Hwang et al., 2008). Mice received intrapancreatic injections of BxPC3-FL (1×10^6 per mouse) with HPSC-shControl or HPSC-shDKK3 in a tumor-to-stroma ratio of 1:0 or 1:3 in 50-μL of HBSS and tumor growth was monitored using IVIS imaging (Hwang et al., 2008). In addition, a syngeneic immunocompetent DKK3 null model was used, provided by Dr. C. Niehrs (Barrantes Idel et al., 2006), that was injected with murine PDAC cells (termed “KPC cells”) isolated from tumors arising in a GEMM of PDAC (Pdx1-Cre; Kras^LSL-G12D;Trp53^R172H/+) (Hingorani et al., 2005; Hingorani et al., 2003) and labeled with luciferase.
The efficacy of DKK3 mAb was tested in vivo using the previously described orthotopic co-implantation nude mouse model of PDAC with human PSCs mixed with luciferase-labeled BxPC3 cancer cells (1:3 tumor:PSC ratio). Mice were treated with either phosphate-buffered saline (PBS), isotype control mAb, or DKK3 mAb (clone JM6-6-1; 5 mg/kg i.p. once every 5 days) and tumor growth was followed with IVIS imaging. […] Tumors in the PBS and control mAb groups grew rapidly from day 22 onward, with an 8-fold increase in the luciferase signal.

MPSCs = experiment: Proliferation of mouse PSCs by MTS assay at 7 days; assay type: cell-based
Protocol: FIGS. 12A-D. DKK3 expression in mouse PSCs and effects of treatment with DKKC mAb on survival. (FIG. 12A) Western blot analysis of recombinant human and mouse DKK3 under denaturing and non-denaturing conditions using JM6-6-1 mAb. (FIG. 12B) Expression of murine DKK3 in murine PSCs (MPSC) or 3T3 cells was determined by RT-PCR. 18S was used as loading control. (FIG. 12C) Proliferation of MPSCs treated with DKK3 mAb was measured at 7 days by MTS assay. ***p<0.001 vs. PBS. (FIG. 12D) Pdx1-Cre; Kras LSL-G12D;Trp53fl/+ model of PDAC was treated with DKK3 mAb JM6-6-1 or control mAb JM4-74 (5 mg/kg i.p. q5d). Kaplan-Meier survival curves are shown (log rank test). At 0% survival, the right line is JM6-6-1, the middle lines is PBS, and the left line is Control Ab.
Cell-based assays. Cell proliferation was measured by the MTS assay (Promega, Madison, Wis.). Cell migration and invasion studies with stimulation by recombinant human DKK3 (R&D, Minneapolis, Minn.) were performed using 6.5-mm Transwell® with 8.0-μm pore membrane Insert (Corning Incorporated) and BioCoat Matrigel-coated invasion chambers (BD Biosciences, Bedford, Mass.).

B1: JM6-6-1: monoclonal antibody against human DKK3; heavy chain variable SEQ ID NO: 19, light chain variable SEQ ID NO: 20 (antibody, V domains shown)
VH: EVKLVESGGGLVKPGGSLKLSCAASGFTFTIEYMAWIRQTPEKRLEWVASISSGGDDIYYADNVKGRFTISRDNAKNTLYLQMSSLKSEDTAIYYCSRSLSDWGQGTTLTVSSAKTTPPSDYPLA
VL: MTQTPLSLPVSLGDQASISCRSSQSILHSNGHTYLEWYLQKPGQSPKLLIYKVSNRFSGVPDRFSGSGSGTDFTLKISRVEAEDLGVYYCFQGSHVPFTFGSGTKLEIERADAAQ
What does the source list for B1?
effect on DKK3-mediated chemoresistance to gemcitabine (BxPC3 cells): abrogated the DKK3-mediated induction of chemoresistance to gemcitabine; tumor growth by IVIS imaging ([1]; day 22 until day 33): significant inhibition in tumor growth; lower volume of metastatic disease in peritoneal cavity by luciferase signal [1]: 6.5 fold; proliferation of mouse PSCs (MPSCs): inhibited proliferation
